Results taken from US20250136699A1 (JIANGSU BIOJETAY BIOTECHNOLOGY, published 2025).
Read-outs that look alike come from different tables or passages of the source.

Tests used:
[1] = target: human FcRn (human FCGRT and B2M) on stably transfected MDCK cells (human, UniProt P55899 24-365; P61769 21-119); assay: cell-based or functional assay
[2] = target: T1, Human recombinant FCGRT & B2M Heterodimer Protein (hFcRn) (human, UniProt P55899 24-297; P61769 21-119); assay: ELISA on coated hFcRn, IgG4 antibody titrated
T1 construct: Bought protein; also called human FcRn
T1 sequence (P55899 24-297 limits assumed, chain 1 of 2): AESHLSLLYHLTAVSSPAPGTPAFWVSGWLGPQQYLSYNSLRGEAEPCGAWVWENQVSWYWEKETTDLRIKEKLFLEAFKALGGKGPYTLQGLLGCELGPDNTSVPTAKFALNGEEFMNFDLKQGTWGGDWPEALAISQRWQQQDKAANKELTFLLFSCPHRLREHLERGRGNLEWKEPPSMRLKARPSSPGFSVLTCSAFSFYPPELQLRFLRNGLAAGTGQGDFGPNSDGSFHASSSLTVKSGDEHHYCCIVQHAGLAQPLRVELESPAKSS
T1 sequence (P61769 21-119 limits assumed, chain 2 of 2): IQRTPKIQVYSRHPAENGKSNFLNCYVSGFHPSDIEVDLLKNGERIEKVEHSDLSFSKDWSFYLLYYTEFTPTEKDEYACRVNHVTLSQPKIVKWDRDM
Method: hFcRn binding of purified full-length chimeric antibodies: The hFcRn antigen binding ELISA was performed on the purified full-length chimeric antibodies (reformatted as IgG4). Briefly, plates were coated overnight at 4° C. with 1 μg/mL of hFcRn (cat #CT009-H08H) in PBS. After removing the coating solution, the wells were blocked by adding blocking buffer and incubated at room temperature for 1 hour. Plates were then washed 6 times with wash buffer. Serial dilutions of purified antibodies in PBS were added to individual wells followed by incubation at room temperature for 1 hour. Plates were washed 6 times with wash buffer. […] Plates were incubated at 37° C. for 1 hour, washed 6 times with wash buffer, and developed for 5-10 minutes with 50 L/well of TMB substrate, then quenched with 2M H₂SO₄. […] The ELISA results (OD450) were analyzed, and the binding curves were generated by Graphpad PRISM.

[3] = target: T2, Cynomolgus monkey FcRn-alpha (cynomolgus monkey, UniProt Q8SPV9 24-297, limits assumed); assay: ELISA on coated cynoFcRn, IgG4 antibody titrated
T2 construct: The printed entry looks like the full-length precursor (signal peptide, transmembrane and cytoplasmic parts); also called cynoFcRn; not shown: His tag and Avi tag
T2 sequence (Q8SPV9 24-297 limits assumed): as the sequence (P55899 24-297 limits assumed, chain 1 of 2) above, with N39D, E44Q, G99S, S189G, S190N, L217M, S269T counted along it

[4] = target: T3, human FCGRT (human, UniProt P55899 24-297, biotinylated (Avi tag) in the blocking assays); assay: ELISA on coated human FCGRT, IgG4 antibody titrated
T3 construct: Alpha chain alone, expressed in Expi293 cells with His and Avi tags; also called FCGRT of human FcRn protein; biotinylated human FCGRT; not shown: His tag and Avi tag
T3 sequence (P55899 24-297 limits assumed): as the sequence (P55899 24-297 limits assumed, chain 1 of 2) above

[5] = target: T4, human B2M (human, UniProt P61769 21-119, limits assumed); assay: ELISA: human B2M coated, antibody titrated, OD450
T4 construct: also called beta-2-microglobulin; not shown: His tag and Avi tag
T4 sequence (P61769 21-119 limits assumed): as the sequence (P61769 21-119 limits assumed, chain 2 of 2) above

[6] = target: T1, Human recombinant FCGRT & B2M …; assay: SPR, Biacore T200, antibody (IgG4) on CM5 chip, hFcRn in solution, pH 6.0
Method: The anti-FcRn antibodies were stabilized on sensor chip CM5. The affinities for hFcRn of antibodies at various concentrations were measured. […] Using the SPR technology, the association and dissociation rates were measured, and binding affinity was determined.

[7] = target: T3, human FCGRT; assay: competition ELISA: human IgG coated, biotinylated human FCGRT plus antibody, SA-HRP
Method: After removing the coating solution, the wells were blocked with a blocking buffer containing 1% BSA at room temperature for 1 hour. Plates were then washed with wash buffer. […] After incubation, 100 μL of SA-HRP (1:20,000) was added to each well and incubated for 1 hour at 37° C. The wells were washed before adding 100 μL/well of TMB and incubated for 5-10 minutes at 37° C. 2M H₂SO₄ was used to stop the reaction. […] The ELISA results (OD450) were analyzed, and the binding curves were generated by PRISM.

[8] = target: human FcRn (human FCGRT and B2M) on stably transfected MDCK cells (human) (UniProt P55899); assay: cell-based or functional assay
human FcRn (human FCGRT and B2M) on stably transfected MDCK cells (human), sequence (P55899 24-365, chain 1 of 2): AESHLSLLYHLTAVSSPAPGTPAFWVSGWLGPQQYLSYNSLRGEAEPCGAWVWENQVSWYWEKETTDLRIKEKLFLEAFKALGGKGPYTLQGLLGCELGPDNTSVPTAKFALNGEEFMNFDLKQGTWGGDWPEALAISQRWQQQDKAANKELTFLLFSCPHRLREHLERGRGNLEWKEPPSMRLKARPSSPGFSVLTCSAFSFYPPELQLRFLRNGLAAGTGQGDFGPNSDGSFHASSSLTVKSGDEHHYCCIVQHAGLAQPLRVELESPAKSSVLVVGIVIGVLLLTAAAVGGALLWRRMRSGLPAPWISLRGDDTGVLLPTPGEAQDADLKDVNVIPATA
human FcRn (human FCGRT and B2M) on stably transfected MDCK cells (human), sequence (P61769 21-119, chain 2 of 2, further chain): as the sequence (P61769 21-119 limits assumed, chain 2 of 2) above

[9] = target: human FcRn (human FCGRT and B2M) on stably transfected MDCK cells (human) (UniProt P55899); assay: cell-based or functional assay; remark: listed apart in the source
[10] = target: Human recombinant FCGRT & B2M Heterodimer Protein (hFcRn) (human) (UniProt P55899); assay: ELISA, hFcRn coated at 1 ug/mL, antibody titrated, anti-human IgG Fab-HRP
Human recombinant FCGRT & B2M Heterodimer Protein (hFcRn) (human), sequence (P55899 24-297 limits assumed, chain 1 of 2): as the sequence (P55899 24-297 limits assumed, chain 1 of 2) above
Human recombinant FCGRT & B2M Heterodimer Protein (hFcRn) (human), sequence (P61769 21-119 limits assumed, chain 2 of 2, further chain): as the sequence (P61769 21-119 limits assumed, chain 2 of 2) above

[11] = target: T3, human FCGRT; assay: competition ELISA: human IgG coated, biotinylated human FCGRT plus antibody, SA-HRP; remark: listed apart in the source
[12] = target: T3, human FCGRT; assay: as above; remark: listed apart in the source
[13] = target: T3, human FCGRT; assay: ELISA: human FCGRT coated, antibody titrated, goat anti-human IgG Fab-HRP, OD450
[14] = target: T3, human FCGRT; assay: as above; remark: listed apart in the source
[15] = target: T2, Cynomolgus monkey FcRn-alpha; assay: ELISA: cynoFcRn coated, antibody titrated, goat anti-human IgG Fab-HRP, OD450

human FcRn (human FCGRT and B2M) on stably transfected MDCK cells, sequence (P55899 24-365, chain 1 of 2): as the sequence (P55899 24-365, chain 1 of 2) above
human FcRn (human FCGRT and B2M) on stably transfected MDCK cells, sequence (P61769 21-119, chain 2 of 2): as the sequence (P61769 21-119 limits assumed, chain 2 of 2) above

| Binder | IgG Recycle IC50 [1] [nM] | EC50 [2] [nM] | EC50 [3] [nM] | EC50 [4] [nM] | binding result [5] | Kd [6] [nM] | IC50 [7] [nM] | koff [6] [s⁻¹] | kon [6] [M⁻¹ s⁻¹] | IgG Recycle IC50 [8] [nM] | IgG Recycle IC50 [9] [nM] | EC50 [10] [nM] | IC50 [11] [nM] | IC50 [12] [nM] | EC50 (read off the curve) [13] [nM] | EC50 (read off the curve) [14] [nM] | EC50 (read off the curve) [15] [nM] |
| --- | --- | --- | --- | --- | --- | --- | --- | --- | --- | --- | --- | --- | --- | --- | --- | --- | --- |
| ZLP1-3-2F (antibody, V domains shown) VH: QVQLQESGPGLVKPSETLSLTCAVSGYSFTSGYSWHWIRQPPGKGLEWIGYIHDSGGTNYNPSLKSRVTISRDTSKNQFSLKLSSVTAADTAVYYCAREENYRYFDVWGQGTLVTVSS VL: EIVLTQSPATLSLSPGERATLSCSASSSVSYMHWFQQKPGQSPRLLIYSTSNLASGIPARFSGSGSGTDFTLTISSLEPEDFAVYYCQQRSSYPPTFGQGTKVEIK | 8.36 | 6.63 | 2.06 | 1.02 | no binding (tested: about 700 nM (Log[Ab] about 2.8)) | 0.609 | 5.77 |  |  |  |  |  |  |  |  |  |  |
| ZLP1-3-2M (antibody, V domains shown) VH: QVQLQESGPGLVKPSETLSLTCTVTGYSFTSGYSWHWIRQPPGKGLEWIGYIHDSGGTNYNPSLKSRVTISRDTSKNQFSLKLSSVTAADTAVYYCAREENYRYFDVWGQGTLVTVSS VL: EIVLTQSPATLSLSPGERATLSCSASSSVSYMHWFQQKPGQSPRLLIYSTSNLASGIPARFSGSGSGTDFTLTISSLEPEDFAVYYCQQRSSYPPTFGQGTKVEIK | 11.9 | 3.11 | 2.82 | 1.22 | no binding (tested: about 700 nM (Log[Ab] about 2.8)) | 0.493 | 5.12 | 0.00184 | 3.73e+06 |  |  |  |  |  |  |  |  |
| Rozanolixizumab (antibody, part only; not given: Constant regions, V domains shown, not shown: another chain or arm of the molecule) VH: EVPLVESGGGLVQPGGSLRLSCAVSGFTFSNYGMVWVRQAPGKGLEWVAYIDSDGDNTYYRDSVKGRFTISRDNAKSSLYLQMNSLRAEDTAVYYCTTGIVRPFLYWGQGTLVTVSS VL: DIQMTQSPSSLSASVGDRVTITCKSSQSLVGASGKTYLYWLFQKPGKAPKRLIYLVSTLDSGIPSRFSGSGSGTEFTLTISSLQPEDFATYYCLQGTHFPHTFGQGTKLEIK |  |  |  |  |  |  |  |  |  | 7.8 | 11.8 | 1.04 | 10.9 | 11.6 | 10 | 0.1 | 0.2 |
